Experimental data taken from patent US7144731B2, “SCF antibody compositions and methods of using the same” (Amgen Inc., priority 1989, dated 2006).

Experiments:
mouse bone marrow cells = test: Pre-B cell colony formation in agar cultures; type: cell-based
Text: The ability of recombinant rat SCF^1-164 (rrSCF^1-164), to act synergistically with IL-7 to enhance lymphoid cell proliferation was studied in agar cultures of mouse bone marrow. In this assay, the colonies formed with rrSCF^1-164 alone contained monocytes, neutrophils, and blast-cells, while the colonies stimulated by IL-7 alone or in combination with rrSCF^1-164 contained primarily pre-B cells. Pre-B cells, characterized as B220^+, sIg^−, cμ^+, were identified by FACS analysis of pooled cells using fluorescence-labeled antibodies to the B220 antigen [Coffman, Immunol. Rev., 69, 5 (1982)] and to surface Ig (FITC-goat anti-K, Southern Biotechnology Assoc., Birmingham, Ala.); and by analysis of cytospin slides for cytoplasmic μ expression using fluorescence-labeled antibodies (TRITC-goat anti-μ, Southern Biotechnology Assoc.,). Recombinant human IL-7 (rhIL-7) was obtained from Biosource International (Westlake Village, Calif.). When rrSCF^1-164 was added in combination with the pre-B cell growth factor IL-7, a synergistic increase in colony formation was observed (Table 16), indicating a stimulatory role of rrSCF^1-164 on early B cell progenitors.

human bone marrow = test: Human bone marrow colony assay; type: cell-based
Outline: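 COS-1-expressed human SCF (aa 1–162), alone or with other growth factors, was tested on Ficoll-separated healthy human bone marrow. Cultures were grown in methylcellulose with 30% FCS and 20 U/ml EPO for 14 days at 7% O2. Colonies ≥0.2 mm were scored.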

murine c-kit (mckit-L1) = biological target: T1, murine c-kit (mckit-L1) (Mus musculus, UniProt P05532); test: ^125I-SCF^1-164 binding to recombinant c-kit in COS-1 cells
T1 construct: expressed in transfected cells; host or cells: COS-1 cells transfected with V19.8 carrying c-kit cDNA cloned from MC/9 mast cells; membrane fractions used
T1 sequence (P05532 25-979): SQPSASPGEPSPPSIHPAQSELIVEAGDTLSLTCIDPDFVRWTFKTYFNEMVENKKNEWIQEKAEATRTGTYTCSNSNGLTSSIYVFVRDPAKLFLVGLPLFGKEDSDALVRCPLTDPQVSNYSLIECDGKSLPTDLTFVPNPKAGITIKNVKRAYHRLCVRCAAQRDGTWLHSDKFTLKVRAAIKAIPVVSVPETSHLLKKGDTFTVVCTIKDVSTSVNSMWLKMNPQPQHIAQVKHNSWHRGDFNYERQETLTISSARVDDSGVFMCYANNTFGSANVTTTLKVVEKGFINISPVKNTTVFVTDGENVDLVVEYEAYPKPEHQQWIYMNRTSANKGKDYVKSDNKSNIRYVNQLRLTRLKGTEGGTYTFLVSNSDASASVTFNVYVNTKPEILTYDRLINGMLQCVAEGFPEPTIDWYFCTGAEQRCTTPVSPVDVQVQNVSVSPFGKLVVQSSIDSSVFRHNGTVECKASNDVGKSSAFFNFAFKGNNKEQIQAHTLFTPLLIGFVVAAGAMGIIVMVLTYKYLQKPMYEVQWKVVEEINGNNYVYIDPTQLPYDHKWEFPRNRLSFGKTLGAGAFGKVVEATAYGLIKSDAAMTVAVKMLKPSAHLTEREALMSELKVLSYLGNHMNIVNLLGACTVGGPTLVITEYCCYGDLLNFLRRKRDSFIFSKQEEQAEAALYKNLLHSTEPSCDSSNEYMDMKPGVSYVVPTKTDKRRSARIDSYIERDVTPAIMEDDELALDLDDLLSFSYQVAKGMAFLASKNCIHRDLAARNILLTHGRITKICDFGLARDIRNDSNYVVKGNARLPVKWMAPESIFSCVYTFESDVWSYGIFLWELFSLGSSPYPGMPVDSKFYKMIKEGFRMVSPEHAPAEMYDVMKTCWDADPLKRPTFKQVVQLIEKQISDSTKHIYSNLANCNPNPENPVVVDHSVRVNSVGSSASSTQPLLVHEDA
Text: (§1) To test whether SCF^1-164 is the ligand for c-kit, the cDNA for the entire murine c-kit [Qiu et al., EMBO J., 7, 1003–1011 (1988)] was amplified using PCR from the SCF^1-164 responsive mast cell line MC/9 [Nabel et al., Nature, 291, 332–334 (1981)] with primers designed from the published sequence. The ligand binding and transmembrane domains of human c-kit, encoded by amino acids 1–549 [Yarden et al., EMBO J., 6, 3341–3351 (1987)], were cloned using similar techniques from the human erythroleukemia cell line, HEL [Martin and Papayannopoulou, Science, 216, 1233–1235 (1982)]. The c-kit cDNAs were inserted into the mammalian expression vector V19.8 transfected into COS-1 cells, and membrane fractions prepared for binding assays using either rat or human ^125I-SCF^1-164 according to the methods described in Sections B and C below. […] There was no detectable specific binding of ^125I human SCF^1-164 to COS-1 cells transfected with V19.8 alone. However, COS-1 cells expressing human recombinant c-kit ligand binding plus transmembrane domains (hckit-LT1) did bind ^125I-hSCF^1-164 (Table 17). The addition of a 200 fold molar excess of unlabelled human SCF^1-164 reduced binding to background levels. Similarly, COS-1 cells transfected with the full length murine c-kit (mckit-L1) bound rat ^125I-SCF^1-164. […] This finding is in accord with the broad cellular distribution of c-kit expression. Rat ^125I-SCF^1-164 binds similarly to both human and murine c-kit, while human ^125I-SCF^1-164 bind with lower activity to murine c-kit (Table 17).
(§2) Human and murine c-kit cDNA clones were derived using PCR techniques [Saiki et al., Science, 239, 487–491 (1988)] from total RNA isolated by an acid phenol/chloroform extraction procedure [Chomczynsky and Sacchi, Anal. Biochem., 162, 156–159, (1987)] from the human erythroleukemia cell line HEL and MC/9 cells, respectively. Unique sequence oligonucleotides were designed from the published human and murine c-kit sequences. First strand cDNA was synthesized from the total RNA according to the protocol provided with the enzyme, Mo-MLV reverse transcription (Bethesda Research Laboratories, Bethesda, Md.), using c-kit antisense oligonucleotides as primers. Amplification of overlapping regions of the c-kit ligand binding and tyrosine kinase domains was accomplished using appropriate pairs of c-kit primers. These regions were cloned into the mammalian expression vector V19.8 (FIG. 17) for expression in COS-1 cells. […] A clone free of these mutations was constructed by reassembly of mutation-free restriction fragments from separate clones. […]

human c-kit (hckit-LT1) = biological target: T2, human c-kit (hckit-LT1) (Homo sapiens, UniProt P10721); test: as above
T2 construct: expressed in transfected cells; host or cells: COS-1 cells transfected with V19.8 carrying c-kit cDNA cloned from HEL cells; membrane fractions used
Text: as §1, §2

B1: rrSCF^1-164: recombinant rat SCF^1-164 from E. coli, also used ^125I-labelled (protein)
chain: QEICRNPVTDNVKDITKLVANLPNDYMITLNYVAGMDVLPSHCWLRDMVTHLSVSLTTLLDKFSNISEGLSNYSIIDKLGKIVDDLVACMEENAPKNVKESLKKPETRNFTPEEFFSIFNRSIDAFKDFMVASDTSDCVLSSTLGPEKDSRVSVTKPFMLPPVA
Colony Number per 5 × 10^4 mouse bone marrow cells plated (mouse bone marrow cells; 50 ng): 4 ± 2
Colony Number per 5 × 10^4 mouse bone marrow cells plated (mouse bone marrow cells; 100 ng): 7 ± 4
Colony Number per 5 × 10^4 mouse bone marrow cells plated (mouse bone marrow cells; 200 ng, mean of triplicate dishes ± SD): 13 ± 2
specific activity in proliferation of human bone marrow (human bone marrow): specific activity similar to that of human SCF^1-164
CPM Bound, ^125I-SCF + cold (murine c-kit (mckit-L1); 1.6 nM ^125I-SCF^1-164 + 320 nM unlabelled SCF^1-164, V19.8:mckit-L1): 600 CPM
CPM Bound, ^125I-SCF (murine c-kit (mckit-L1); 1.6 nM ^125I-SCF^1-164, plasmid V19.8:mckit-L1): 52,700 CPM
CPM Bound, ^125I-SCF + cold (human c-kit (hckit-LT1); 1.6 nM ^125I-SCF^1-164 + 320 nM unlabelled SCF^1-164, V19.8:hckit-LT1): 1,100 CPM
CPM Bound, ^125I-SCF (human c-kit (hckit-LT1); 1.6 nM ^125I-SCF^1-164, plasmid V19.8:hckit-LT1): 70,000 CPM
